According to EP2168984B1 (Abbott GmbH & Co. KG, dated 2012):

Experiments:
Experiment in all cases: competition ELISA: soluble cytokine against J695 (100 ng/ml) binding to immobilized human IL-12
[1] = molecular target: human LIF (human, UniProt P15018 23-202)
[2] = molecular target: T1, human soluble IL-6 receptor (human, UniProt P08887 20-358)
T1 construct: Soluble form
T1 sequence (looked up): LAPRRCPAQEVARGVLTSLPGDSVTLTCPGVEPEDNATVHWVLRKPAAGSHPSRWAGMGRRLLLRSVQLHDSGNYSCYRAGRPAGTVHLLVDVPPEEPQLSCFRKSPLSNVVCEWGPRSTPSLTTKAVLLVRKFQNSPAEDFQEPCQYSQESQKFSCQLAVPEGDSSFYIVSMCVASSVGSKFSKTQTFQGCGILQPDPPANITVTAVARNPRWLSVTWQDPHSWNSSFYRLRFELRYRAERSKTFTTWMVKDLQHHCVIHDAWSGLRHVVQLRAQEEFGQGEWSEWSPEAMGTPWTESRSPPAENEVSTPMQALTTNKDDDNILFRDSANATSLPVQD

[3] = molecular target: human IL-8 (human, UniProt P10145 28-99, limits assumed)
[4] = molecular target: T2, human M-CSF (human, UniProt P09603 33-190, limits assumed)
T2 sequence (looked up): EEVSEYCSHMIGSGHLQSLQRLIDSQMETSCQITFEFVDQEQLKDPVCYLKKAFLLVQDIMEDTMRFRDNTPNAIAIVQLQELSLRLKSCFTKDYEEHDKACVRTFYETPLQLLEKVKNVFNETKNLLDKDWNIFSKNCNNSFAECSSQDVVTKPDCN

[5] = molecular target: T3, human IL-4 (human, UniProt P05112 25-153)
T3 sequence (looked up): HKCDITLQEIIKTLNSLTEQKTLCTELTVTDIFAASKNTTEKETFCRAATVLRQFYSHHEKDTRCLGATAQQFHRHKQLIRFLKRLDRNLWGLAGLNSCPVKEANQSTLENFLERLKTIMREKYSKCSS

[6] = molecular target: T4, human IL-11 (human, UniProt P20809 22-199)
T4 sequence (looked up): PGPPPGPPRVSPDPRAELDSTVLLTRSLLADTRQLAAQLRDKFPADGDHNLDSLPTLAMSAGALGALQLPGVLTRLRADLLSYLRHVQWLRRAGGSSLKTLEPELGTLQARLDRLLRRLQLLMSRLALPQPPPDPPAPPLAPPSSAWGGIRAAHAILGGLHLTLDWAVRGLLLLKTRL

[7] = molecular target: human IL-10 (human, UniProt P22301 19-178)
[8] = molecular target: human IGF-II (human, UniProt P01344 25-91)
[9] = molecular target: human IL-1β (human, UniProt P01584 117-269)
[10] = molecular target: T5, human lymphotoxin (human, UniProt P01374 35-205, limits assumed)
T5 sequence (looked up): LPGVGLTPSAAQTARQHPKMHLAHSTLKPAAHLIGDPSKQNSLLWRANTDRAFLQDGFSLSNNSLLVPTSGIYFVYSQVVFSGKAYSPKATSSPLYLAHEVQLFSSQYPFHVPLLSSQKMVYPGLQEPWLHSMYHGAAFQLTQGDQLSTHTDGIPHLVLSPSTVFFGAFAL

[11] = molecular target: human TNFα (human, UniProt P01375 77-233)
[12] = molecular target: T6, human IL-1α (human, UniProt P01583 113-271)
T6 sequence (looked up): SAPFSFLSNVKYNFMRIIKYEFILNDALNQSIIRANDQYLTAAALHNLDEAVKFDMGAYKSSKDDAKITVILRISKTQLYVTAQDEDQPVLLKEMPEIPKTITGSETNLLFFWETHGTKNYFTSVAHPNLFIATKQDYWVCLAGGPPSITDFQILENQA

[13] = molecular target: T7, human IFN-gamma (human, UniProt P01579 24-166, limits assumed)
T7 sequence (looked up): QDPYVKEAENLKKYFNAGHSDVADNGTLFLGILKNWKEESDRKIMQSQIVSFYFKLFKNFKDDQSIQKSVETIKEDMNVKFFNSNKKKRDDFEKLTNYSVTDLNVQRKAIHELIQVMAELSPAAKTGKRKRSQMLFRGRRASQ

[14] = molecular target: human IL-6 (human, UniProt P05231 30-212)
[15] = molecular target: human IL-17 (human, UniProt Q16552 20-155, limits assumed)
[16] = molecular target: human IGF-I (human, UniProt P05019 49-118)
[17] = molecular target: human IL-2 (human, UniProt P60568 21-153)
[18] = molecular target: human TGF-β1 (human, UniProt P01137 279-390)

Measured: binding result

B1: J695 (human anti-human IL-12 antibody, IgG1) (antibody, V domains shown)
VH: QVQLVESGGGVVQPGRSLRLSCAASGFTFSSYGMHWVRQAPGKGLEWVAFIRYDGSNKYYADSVKGRFTISRDNSKNTLYLQMNSLRAEDTAVYYCKTHGSHDNWGQGTMVTVSS
VL: QSVLTQPPSVSGAPGQRVTISCSGSRSNIGSNTVKWYQQLPGTAPKLLIYYNDQRPSGVPDRFSGSKSGTSASLAITGLQAEDEADYYCQSYDRYTHPALLFGTGTKVTVLG
notes: Tested as whole IgG1 with lambda light chain (detected with anti-human lambda); also called IgG1 J695; Y61-L94Y-L50Y IgG
no binding (tested: 2nM): all assays above
